Substrate in series [1]: N[C@@H](Cc1c[nH]c2c(F)cc(F)cc12)C(=O)O
The series is described as follows: (§1) Compound was evaluated for relative maximum velocity (Vmax) in a reaction with tryptophan indole-lyase (tryptophanase) from Escherichia coli.

Substrate in series [2]: N[C@@H](Cc1c[nH]c2c(F)cccc12)C(=O)O
The series is described as §1.

Substrate in series [3]: N[C@@H](Cc1c[nH]c2ccccc12)C(=O)O
Described as §1.

Substrate in series [4]: N[C@@H](Cc1c[nH]c2c(F)ccc(F)c12)C(=O)O
The series is described as §1.

Substrate in series [5]: N[C@@H](Cc1c[nH]c2c(F)cc(F)cc12)C(=O)O
The series can be described thus: (§2) Compound was evaluated for Michaelis-Menten constant (Km) in a reaction with tryptophan indole-lyase (tryptophanase) from Escherichia coli.

Substrate in series [6]: N[C@@H](Cc1c[nH]c2c(F)cccc12)C(=O)O
Described as §2.

Substrate in series [7]: N[C@@H](Cc1c[nH]c2ccccc12)C(=O)O
The series is described as §2.

Substrate in series [8]: N[C@@H](Cc1c[nH]c2c(F)ccc(F)c12)C(=O)O
The series is described as §2.

The record followed here is ChEMBL document CHEMBL1126004, “Synthesis and resolution of 7-fluorotryptophans” (Bioorg Med Chem Lett, 1991).

B1: Tryptophan 2,3-dioxygenase (Homo sapiens), P48775 (protein)
chain: MSGCPFLGNNFGYTFKKLPVEGSEEDKSQTGVNRASKGGLIYGNYLHLEKVLNAQELQSETKGNKIHDEHLFIITHQAYELWFKQILWELDSVREIFQNGHVRDERNMLKVVSRMHRVSVILKLLVQQFSILETMTALDFNDFREYLSPASGFQSLQFRLLENKIGVLQNMRVPYNRRHYRDNFKGEENELLLKSEQEKTLLELVEAWLERTPGLEPHGFNFWGKLEKNITRGLEEEFIRIQAKEESEEKEEQVAEFQKQKEVLLSLFDEKRHEHLLSKGERRLSYRALQGALMIYFYREEPRFQVPFQLLTSLMDIDSLMTKWRYNHVCMVHRMLGSKAGTGGSSGYHYLRSTVSDRYKVFVDLFNLSTYLIPRHWIPKMNPTIHKFLYTAEYCDSSYFSSDESD
In general, Km refers to the substrate concentration at which the rate is half of its maximum. As to B1, the Vmax stood at 58% in series [1], 29% in series [2], 100% in series [3] and 42% in series [4]. The Michaelis constant (Km) was determined as 490 µM in series [5], 640 µM in series [6], 260 µM in series [7] and 1700 µM in series [8].
